Assay results as given in US20230019640A1 (Janssen / Centocor, published 2023).

T1: mouse pIgR extracellular domain (ECD) (mouse, UniProt O70570 19-645)
T1 construct: The entry ends with a C-terminal HHHHHH tag; also called mpIgR; mpIgR ectodomain
T1 sequence: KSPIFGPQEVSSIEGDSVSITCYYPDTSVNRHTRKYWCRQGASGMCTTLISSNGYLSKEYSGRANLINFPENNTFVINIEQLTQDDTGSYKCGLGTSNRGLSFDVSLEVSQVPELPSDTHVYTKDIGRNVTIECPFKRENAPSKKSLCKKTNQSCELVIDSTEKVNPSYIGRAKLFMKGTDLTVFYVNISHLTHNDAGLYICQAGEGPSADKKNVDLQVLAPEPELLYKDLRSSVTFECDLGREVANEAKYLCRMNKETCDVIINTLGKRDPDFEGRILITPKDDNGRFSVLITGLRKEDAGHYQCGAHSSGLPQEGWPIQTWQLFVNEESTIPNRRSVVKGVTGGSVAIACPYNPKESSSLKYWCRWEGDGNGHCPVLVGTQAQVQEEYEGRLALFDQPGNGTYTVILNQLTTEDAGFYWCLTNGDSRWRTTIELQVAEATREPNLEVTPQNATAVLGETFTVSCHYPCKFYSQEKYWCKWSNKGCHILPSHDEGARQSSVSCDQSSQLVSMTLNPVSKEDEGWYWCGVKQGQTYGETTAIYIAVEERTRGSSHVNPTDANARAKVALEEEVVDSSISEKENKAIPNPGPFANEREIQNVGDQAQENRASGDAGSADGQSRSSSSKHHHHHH

B1: VHH2 - linker-mono-Fc protein (Fc fusion)
chain: EVQVVESGGGLVQAGGSLKLACAAPGLTFSSYRMGWFRQAPGQEREFVAAIDWNGRGTYYRYYADSVKGRSTISRDNAKNTVYLQMNSLKPEDTAVYYCAATTVLTDPRVLNEYATWGQGTQVTVSSEPKTPKPQPQPQLQPQPNPTTESKSPKSPAPELLGGPSVFLFPPKPKDTLMISRTPEVTCVVVDVSHEDPEVKFNWYVDGVEVHNAKTKPREEQYNSTYRVVSVLTVLHQDWLNGKEYKCKVSNKALPAPIEKTISKAKGQPREPQVYTKPPSREEMTKNQVSLSCLVKGFYPSDIAVEWESNGQPENNYKTTVPVLDSDGSFRLASYLTVDKSRWQQGNVFSCSVMHEALHNHYTQKSLSLSPGK
notes: also called VHH2-mono-Fc; mpIgR_338
B2: VHH3 - linker-mono-Fc protein (Fc fusion)
chain: QLQLVESGGGLVQPGGSLRLSCAASGSIFSINVMGWYRQAPGKQRELVARINGGGITHYAESVKGRFTISRDNAKNTVYLQMNSLKPEDTAAYYCKADVFGSSGYVETYWGQGTQVTVSSEPKTPKPQPQPQLQPQPNPTTESKSPKSPAPELLGGPSVFLFPPKPKDTLMISRTPEVTCVVVDVSHEDPEVKFNWYVDGVEVHNAKTKPREEQYNSTYRVVSVLTVLHQDWLNGKEYKCKVSNKALPAPIEKTISKAKGQPREPQVYTKPPSREEMTKNQVSLSCLVKGFYPSDIAVEWESNGQPENNYKTTVPVLDSDGSFRLASYLTVDKSRWQQGNVFSCSVMHEALHNHYTQKSLSLSPGK
notes: also called VHH3-mono-Fc; hpIgR_021

Biological target: T1, mouse pIgR extracellular domain (ECD)
Assay: not named on the sheet

Binder	binding result
B1	binds
B2	binds
